Key:
Assay type in all cases: cell-based
Cav3.1 [1] = biological target: T1, Cav3.1 (Homo sapiens, UniProt O43497); assay: Whole-cell patch clamp of Cav3.1 current in Cav3.1/HEK cells transfected with chimeras, truncations and point mutants (Example 6); conditions: FIG. 38, FIG. 41
T1 construct: expressed in transfected cells; host or cells: HEK-293, stably transfected
Method: Transfection. HEK-293 cells stably transfected with either Cav3.1 or Cav3.2 were transiently transfected, at 50% confluency, with a bicistronic vector encoding both GFP and γ subunit cDNA's using Lipofectamine 2000 reagent (Invitrogen, Carlsbad, Calif.) as per the manufacturer's recommendations. Cells were visualized using an Nikon inverted microscope with an FITC filter.
Electrophysiology. Whole cell Ca^2+ currents were recorded using an Axon Instruments Axopatch-1D amplifier and Clampex 8.0 software. Pipettes were made from boroscillicate glass and had typical resistances of 2-4 Mohms. The pipette solution contained (in mM) 130 NaCl, 10 EGTA, 2 or 5 MgCl2, 1 CaCl2, 10 HEPES, 3 Tris-ATP, and 0.3 Li2GTP. Two different bath solutions were used. The first, used for experiments with γ subunit chimeras, contained (in mM) 130 NaCl, 1 MgCl2, 2 CaCl2, 10 glucose, 10 HEPES, and 0.03 TTX. The second, used for experiments with γ subunit containg point mutations, contained (in mM) 137 NaCl, 1 KCl, 1 MgCl2, 0.33 NaH2PO4, 2 CaCl2, 10 HEPES. All solutions were adjusted to pH 7.4 with NaOH and 280 mOsm with sucrose. No Cl^− currents were evident in any HEK-293 cells line, stably transfected or not, and no attempt was made to eliminate Cl^− currents from data records.
All electrophysiological data are from current records in which voltage offset was adjusted, pipette capacitance and whole cell capacitance were compensated and series resistance was compensated to >80%. Currents were filtered at 10 kHz and recorded at 40 kHz. In some cases, current records were off-line filtered at 1K. Current voltage relationships were recorded using an on-line P/−4 subtraction procedure to eliminate linear capacitative and leakage currents. Only recordings with less than 50 pA leakage current were used.
Several different protocols were used to determine the biophysical characteristics of currents in HEK-293 cells. The voltage dependence of activation was determined using “tail” currents. Cells were depolarized from a holding potential of −100 mV to test potentials ranging from −90 mV to +60 mV. Pulse durations varied and corresponded to the time to peak current measured at the corresponding test potentials. Following the conditioning pulse cells were re-polarized to −60 mV and the amplitude of the resulting “tail” current measured. The voltage dependence of inactivation was measured by depolarizing the cells to voltages ranging from −120 mV to 50 mV for 500 ms to inactivate the Ca^2+ channels. After this conditioning step the membrane was returned to the holding potential (−100 mV) for 3 ms and then depolarized a second time to +20 mV for 150 ms during which time the peak current was measured. Time constants for inactivation were measured by fitting a single exponential equation to the decay phase of currents elicited by voltage steps from −50 to +30 mV from a holding potential of −100 mV. Time constants for deactivation were measured by fitting either a single or a double exponential to the decay phase of tail currents.
To account for the inherent variation in calcium current density in the HEK-Cav3.1 stable cell line the averaged current density of each test group of cells was normalized to the mean current density of a control group of cells. A minimum of 5 cells (typically 7 to 10) from each group was used to calculate the mean current densities of test and control cells. At least two independent transfections were performed for each test condition. […]

Cav3.1 [2] = biological target: T1, Cav3.1; assay: Whole-cell patch clamp of Cav3.1 LVA current in HEK/Cav3.1 cells transfected with γ6/γ4 chimeric and truncated constructs (Example 2); conditions: Table 1 (Example 2)
Method: Transfection—HEK-293 cell lines stably transfected with Cav3.1 were transiently transfected with vectors containing γ subunit cDNAs using Lipofectamine 2000 reagent (Invitrogen) as per the manufacturer's recommendations. HEK-293 cells were grown to 70-80% confluence before transfection.
Electrophysiology—Whole-cell calcium currents were recorded using an Axopatch-1D patch clamp system and Clampex 8.0 software. Pipettes were fabricated from borosilicate glass and had typical resistances of 2-4 MΩ. The pipette solution contained (in mM): 130 NaCl, 10 EGTA, 2 MgCl2, 1 CaCl2, 10 HEPES, 3 Tris-ATP, and 0.3 Tris-GTP, adjusted to pH 7.4 with NaOH and 280 mOsm with sucrose. The bath solution contained (in mM): 137 NaCl, 1 KCl, 1 MgCl2, 0.33 NaH2PO4, 2 CaCl2, 10 HEPES, and 30 μM TTX, adjusted to pH 7.4 with NaOH and 280 mOsm with sucrose.
Recordings from HEK-293 cells were made 48-96 hours post-transfection, at which time expression, as measured by GFP fluorescence, peaked. All HEK-293 data is from current records in which pipette and whole-cell capacitance were about 100% compensated and series resistance was compensated to >80%. Series resistance values were typically <10 MΩ (megaohms), and no records were used in which the voltage error (as defined by Ver=Imax×Ra) was greater than 5 mV. The holding potential of all protocols used for HEK-293 cells was −100 mV except for steady-state inactivation protocols where the holding potential was −120 mV. Current-voltage relationships for all HEK-293 cells were measured using 50 ms test depolarizations. Peak current amplitudes for activation curves were determined by fitting tail currents, elicited by stepping membrane voltage from varying test potentials to −60 mV, with the Boltzman equation. Test potential steps for activation protocols were of varied durations, corresponding to the time to peak of the elicited current. Inactivation curves were determined by fitting peak amplitudes of currents, observed in a test pulse to −20 mV, following 500 ms steps to varying potentials, with the Boltzman equation. Time to peak was determined using the current-voltage protocol described above. Inactivation time constants were determined by fitting the decay phase of currents to an exponential equation and deactivation time constants were determined by fitting the decay phase of tail currents to an exponential equation. […] When a double exponential equation was used to fit Cav3.1 tail currents, the magnitude of the fast component was about 10 fold that of the slow component. Currents were recorded at 40 kHz and on-line filtered at 5. In some cases currents were off-line filtered at 1 kHz to further reduce noise. Current-voltage relationships and tail currents were recorded from HEK cells using an on-line P/−4 subtraction procedure. The average membrane capacitance of untransfected HEK-293 cells in pilot experiments was 12.5+/−0.4 pF (n=8).
Statistical Analysis—All data are reported as mean±SEM and tested for significance by one-way ANOVA. A value of P<0.05 was considered significant and when significant p-values were encountered groups were compared using the Tukey post-hoc test.

Cav3.1 [3] = biological target: T1, Cav3.1; assay: Whole-cell patch clamp of Cav3.1 dependent LVA calcium current in HEK-293/Cav3.1 cells transiently transfected with γ subunits (Example 1)
Method: 2.3. Transfection. Untransfected HEK-293 cells, HEK-293 cell lines stably transfected with Cav3.1, and HL-1 cells were transiently transfected with vectors containing γ subunit, GFP, and modified CFP cDNAs using Lipofectamine 2000 reagent (InVitrogen) as per the manufacturer's recommendations. HEK-293 cells were grown to 70-80% confluence before transfection. HL-1 cells were grown to 50-75% confluence before transfection.
2.4. Electrophysiology. Whole-cell calcium currents were recorded using an Axopatch-1 D patch clamp system and Clampex 8.0 software. Pipettes were fabricated from borosilicate glass and had typical resistances of 2-4 MΩ. The pipette solution contained (in mM): 130 NaCl, 10 EGTA, 2 MgCl2, 1 CaCl2, 10 HEPES, 3 Tris-ATP, and either 0.3 Li2GTP or 0.3 Tris-GTP, adjusted to pH 7.4 with NaOH and 280 mOsm with sucrose. The bath solution contained (in mM): 137 NaCl (for HEK-293 experiments) or 120 TEACl (for HL-1 experiments), 1 KCl, 1 MgCl2, 0.33 NaH2PO4, 2 CaCl2 (for HEK-293 experiments) or 5 CaCl2 (for HL-1 experiments), 10 glucose (for HL-1 experiments only), 10 HEPES, and 30 μM TTX (for HEK-293 experiments only), adjusted to pH 7.4 with NaOH (for HEK-293 experiments) or TEAOH (for HL-1 experiments) and 280 mOsm with sucrose. NaCl was used as the major salt in the pipette solution order to eliminate any outward K+ currents.
Recordings from HEK-293 cells were made 48-96 h posttransfection, at which time expression, as measured by GFP fluorescence, peaked. HL-1 cells were used for recording 24-36 h post-transfection. Current densities in HEK-293/Cav3.1 cell experiments were normalized to control for variation in current expression in the different frozen stocks of stable cell lines used. […] HL-1 experiments were performed using a single stock of cells. All HEK-293 data are from current records in which pipette and whole-cell capacitance were about 100% compensated and series resistance was compensated to >80%. Whole-cell capacitance and series resistance were not compensated for HL-1 recordings as currents were typically <100 pA. Series resistance values were typically <10 MX, and no records were used in which the voltage error (as defined by Ver=Imax×Ra) was greater than 5 mV. The holding potential of all protocols used for HEK-293 cells was −100 mV except for steady-state inactivation protocols where the holding potential was −120 mV. The holding potential for protocols used for HL-1 cells was −90 mV. Current-voltage relationships for all HEK-293 and HL-1 cells were measured using 50 ms test depolarizations. Peak current amplitudes for activation curves were determined by fitting tail currents, elicited by stepping membrane voltage from varying test potentials to −60 mV, with the Boltzman equation. Test potential steps for activation protocols were of varied durations, corresponding to the time to peak of the elicited current. Inactivation curves were determined by fitting peak amplitudes of currents, observed in a test pulse to −20 mV, following 500 ms steps to varying potentials, with the Boltzman equation. Time to peak was determined using the current-voltage protocol described above. Inactivation time constants were determined by fitting the decay phase of currents to an exponential equation and deactivation time constants were determined by fitting the decay phase of tail currents to an exponential equation. […] Currents were recorded at 40 kHz and on-line filtered at either 5 or 10 kHz. In some cases currents were off-line filtered at 1 kHz to further reduce noise. Current/voltage relationships and tail currents were recorded from HEK cells using an on-line P/−4 subtraction procedure. Calcium currents recorded from HL-1 cells were off-line leak subtracted. The average membrane capacitance of untransfected HEK-293 cells in pilot experiments was 12.5±1.4 pF (n=8). […]

T1 sequence (O43497 whole entry, the tested form may be a part): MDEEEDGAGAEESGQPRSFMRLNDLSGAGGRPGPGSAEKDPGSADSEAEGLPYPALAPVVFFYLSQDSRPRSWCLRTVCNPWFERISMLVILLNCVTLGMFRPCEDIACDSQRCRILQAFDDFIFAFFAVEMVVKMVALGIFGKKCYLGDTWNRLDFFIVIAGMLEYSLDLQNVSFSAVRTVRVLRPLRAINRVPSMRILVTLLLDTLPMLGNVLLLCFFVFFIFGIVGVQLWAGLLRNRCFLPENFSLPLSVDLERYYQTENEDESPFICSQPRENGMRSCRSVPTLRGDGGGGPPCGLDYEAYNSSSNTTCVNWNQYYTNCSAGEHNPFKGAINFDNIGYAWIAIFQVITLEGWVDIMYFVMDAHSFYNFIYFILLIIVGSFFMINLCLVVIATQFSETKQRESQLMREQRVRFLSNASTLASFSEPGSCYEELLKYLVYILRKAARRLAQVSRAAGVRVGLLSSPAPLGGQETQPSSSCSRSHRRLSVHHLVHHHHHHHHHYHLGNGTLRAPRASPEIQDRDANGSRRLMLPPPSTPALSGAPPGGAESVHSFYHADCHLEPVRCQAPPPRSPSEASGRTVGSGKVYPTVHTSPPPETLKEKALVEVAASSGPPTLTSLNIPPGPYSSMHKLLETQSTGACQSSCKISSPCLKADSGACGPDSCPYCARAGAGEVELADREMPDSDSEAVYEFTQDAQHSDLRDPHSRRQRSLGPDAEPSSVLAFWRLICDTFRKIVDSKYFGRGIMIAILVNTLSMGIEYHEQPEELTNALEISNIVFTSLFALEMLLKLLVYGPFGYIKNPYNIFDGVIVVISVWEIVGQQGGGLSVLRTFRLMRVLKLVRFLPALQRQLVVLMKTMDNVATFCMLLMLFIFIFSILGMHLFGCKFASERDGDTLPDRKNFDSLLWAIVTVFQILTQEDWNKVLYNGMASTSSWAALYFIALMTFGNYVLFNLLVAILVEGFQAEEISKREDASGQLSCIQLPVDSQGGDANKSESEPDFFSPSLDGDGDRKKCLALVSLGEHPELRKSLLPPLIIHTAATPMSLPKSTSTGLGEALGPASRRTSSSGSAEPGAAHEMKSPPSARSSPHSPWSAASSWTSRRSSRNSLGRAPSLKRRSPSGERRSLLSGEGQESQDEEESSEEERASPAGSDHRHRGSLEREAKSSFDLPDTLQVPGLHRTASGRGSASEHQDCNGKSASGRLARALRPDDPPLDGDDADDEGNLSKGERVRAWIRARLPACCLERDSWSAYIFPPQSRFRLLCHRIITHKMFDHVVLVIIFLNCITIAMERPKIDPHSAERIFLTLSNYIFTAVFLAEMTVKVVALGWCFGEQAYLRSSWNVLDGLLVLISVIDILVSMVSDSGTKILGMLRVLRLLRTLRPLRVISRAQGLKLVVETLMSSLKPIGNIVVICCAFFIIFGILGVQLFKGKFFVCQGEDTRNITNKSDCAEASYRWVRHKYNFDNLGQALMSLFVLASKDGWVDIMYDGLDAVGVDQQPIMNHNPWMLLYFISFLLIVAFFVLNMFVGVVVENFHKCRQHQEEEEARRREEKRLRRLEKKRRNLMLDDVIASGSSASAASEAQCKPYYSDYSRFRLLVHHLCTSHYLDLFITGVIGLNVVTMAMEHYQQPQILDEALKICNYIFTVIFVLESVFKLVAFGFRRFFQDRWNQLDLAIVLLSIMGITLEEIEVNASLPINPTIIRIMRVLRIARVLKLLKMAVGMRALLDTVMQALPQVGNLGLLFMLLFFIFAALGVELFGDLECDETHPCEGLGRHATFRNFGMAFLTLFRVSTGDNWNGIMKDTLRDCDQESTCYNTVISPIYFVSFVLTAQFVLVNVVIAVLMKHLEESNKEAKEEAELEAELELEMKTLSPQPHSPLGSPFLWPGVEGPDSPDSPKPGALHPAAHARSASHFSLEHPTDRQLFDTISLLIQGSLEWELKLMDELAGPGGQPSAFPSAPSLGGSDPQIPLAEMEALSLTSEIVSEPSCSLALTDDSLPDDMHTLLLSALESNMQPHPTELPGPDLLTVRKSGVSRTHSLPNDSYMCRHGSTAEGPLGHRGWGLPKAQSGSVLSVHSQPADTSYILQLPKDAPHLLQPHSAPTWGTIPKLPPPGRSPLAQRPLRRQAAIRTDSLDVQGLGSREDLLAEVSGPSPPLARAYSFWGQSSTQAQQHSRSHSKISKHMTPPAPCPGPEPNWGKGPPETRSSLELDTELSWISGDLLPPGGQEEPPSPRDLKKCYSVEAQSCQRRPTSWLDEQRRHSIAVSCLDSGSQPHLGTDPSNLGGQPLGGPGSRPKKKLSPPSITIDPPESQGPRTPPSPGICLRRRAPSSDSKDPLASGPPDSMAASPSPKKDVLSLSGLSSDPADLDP

Molecule | Effect on Cav3.1 calcium current density (Cav3.1 [1]) | Activation V 0.5 (Cav3.1 [2]) | Activation k (Cav3.1 [2]) | Deactivation tau @ −100 mV, Fast (Cav3.1 [2]) | Inactivation V 0.5 (Cav3.1 [2]) | Inactivation k (Cav3.1 [2]) | Inactivation tau @−20 mV (Cav3.1 [2]) | Time to peak @ −20 mV (Cav3.1 [2]) | V peak (Cav3.1 [2]) | Effect on current kinetics or voltage dependency (Cav3.1 [3]; HEK-293/Cav3.1) | Peak current density, % of control value (Cav3.1 [3]; HEK-293/Cav3.1, normalized to adCGI vector control, mean±S.E.M.) | Activation V 0.5 (Cav3.1 [3]; Table 2) | Activation k (Cav3.1 [3]; Table 2) | Deactivation tau @ −100 mV, Fast (Cav3.1 [3]; Table 2) | Inactivation Tau @ −20 mV (Cav3.1 [3]; Table 2) | Inactivation V 0.5 (Cav3.1 [3]; Table 2) | Inactivation k (Cav3.1 [3]; Table 2) | Time to peak @ −20 mV (Cav3.1 [3]; Table 2) | V peak (Cav3.1 [3]; Table 2) | Decrease in Cav3.1 current density (Cav3.1 [3]; co-expression with Cav3.1 in HEK-293 cells) [%]
γ1 T12G: γ1 single mutant containing just part of the GXXXA motif (protein, UniProt Q06432 1-222, looked up, variant T12G) Voltage-dependent calcium …: MSQTKMLKVRVGLFCILAGIVLAMTAVVTDHWAVLSPHMEHHNTTCEAAHFGLWRICTKRIPMDDSKTCGPITLPGEKNCSYFRHFNPGESSEIFEFTTQKEYSISAAAIAIFSLGFIILGSLCVLLSLGKKRDYLLRPASMFYAFAGLCILVSVEVMRQSVKRMIDSEDTVWIEYYYSWSFACACAAFILLFLGGLALLLFSLPRMPRNPWESCMDAEPEH | no effect |  |  |  |  |  |  |  |  |  |  |  |  |  |  |  |  |  |  | 
γ1 (T12G, I16A): γ1 double mutant containing the complete GXXXA motif in TM1 (protein, UniProt Q06432 1-222, looked up, variant T12G I16A) Voltage-dependent calcium …: MSQTKMLKVRVGLFCALAGIVLAMTAVVTDHWAVLSPHMEHHNTTCEAAHFGLWRICTKRIPMDDSKTCGPITLPGEKNCSYFRHFNPGESSEIFEFTTQKEYSISAAAIAIFSLGFIILGSLCVLLSLGKKRDYLLRPASMFYAFAGLCILVSVEVMRQSVKRMIDSEDTVWIEYYYSWSFACACAAFILLFLGGLALLLFSLPRMPRNPWESCMDAEPEH | significantly inhibited |  |  |  |  |  |  |  |  |  |  |  |  |  |  |  |  |  |  | 
γ6S: rat calcium channel γ6 subunit, short isoform (AF361344), SEQ ID NO:49 (protein, listed as Rattus norvegicus) MMWSNFFMQEEDRRRTAVGRRRAQEQQNLGLTPEREGKIKLGLLVAIVGATLAVLAVGTEFWVELNTYKTNGSAVCEAAHLGLWKVCIKRLWQADVPAGRETCGPAELPGEANCTYFKFFTTGENAHIFQRTTKKGLLLFVSLEVFRHSVRALLQGVNPETPPAPRLAYEYSWSLGCGVGAGLILLLGGVCFLLLTLPSWPWRSLCPKRGGPTA |  | −36.3 ± 6.2 (n = 4) mV | 12.7 ± 1.5 (n = 4) | 1.20 ± 0.06 (n = 3) ms | −72.0 ± 5.9 (n = 3) mV | 5.9 ± 0.7 (n = 3) | 22.9 ± 0.7 (n = 2) ms | 6.4 ± 0.5 (n = 3) ms | −27.0 ± 2.5 (n = 5) mV | did not alter current kinetics or voltage dependency | 31%±13% | −36.3 ± 6.2 (n = 4) mV | 12.7 ± 1.5 (n = 4) | 1.20 ± 0.06 (n = 3) ms | 22.9 ± 0.7 (n = 2) ms | −72.0 ± 5.9 (n = 3) mV | 5.9 ± 0.7 (n = 3) | 6.4 ± 0.5 (n = 3) ms | −27.0 ± 2.5 (n = 5) mV | 69
